Residue numbers refer to the chain shown, from its start.

This passage reports Kd results from patent publication US20210163606A1.

Sequences and labels used below:
B1: aNRP2-28v2/4 (antibody, V domains shown)
VH: QSVKESEGGLFKPTDTLTLTCTVSGFSLSTYSISWVRQAPGNGLEWIGIIGDAGGIIYATWAKSRSTITRSTALNTVTLKMTGLTAADTATYFCARDGTAFDIWGPGTLVTVSS
VL: AYDMTQTPASVEVVVGGTVTIKCQASQSIYSKLGWYQQKPGQPPKLLIYRASTLASGVSSRFKGSGSGTEYTLTISGVQCDDAATYYCQQDYSYINVDNIFGGGTEVVVK
B2: aNRP2-10v5 (antibody, V domains shown)
VH: EVQLVQSGAEVKKPGATVKISCKVSGFNIKDYYIHWVQQAPGKGLEWMGRIDVEDDETKYAPKFQGRVTITADTSTDTAYMELSSLRSEDTAVYYCATPIYGSREAWFAYWGQGTLVTVSS
VL: DIQMTQSPSSLSASVGDRVTITCTASSSVSSSYLHWYQQKPGKAPKLLIYRTSNLASGVPSRFSGSGSGTDFTLTISSLQPEDFATYYCHQYYRSPPTFGGGTKVEIK
B3: aNRP2-10v13 (antibody, V domains shown)
VH: B2 VH with I34V, E54H, S103A
VL: B2 VL
B4: aNRP2-10v10 (antibody, V domains shown)
VH: B2 VH with I34V, S103A
VL: B2 VL
B5: aNRP2-1v3 (antibody, V domains shown)
VH: QVQLVQSGAEVKKPGASVKVSCKASGYTFTSYWMHWVRQAPGQGLEWMGAIYPGNSDTSYNQQFKGRVTMTRDTSTSTVYMELSSLRSEDTAVYYCARRGGGYFDYWGQGTLVTVSS
VL: DIQLTQSPSFLSASVGDRVTITCKASQNVGAAVAWYQQKPGKAPKLLIYSASNRYTGVPSRFSGSGSGTEFTLTISSLQPEDFATYYCQQYSSYPLLTFGGGTKVEIK
B6: aNRP2-14v9 (antibody, V domains shown)
VH: QLQLVESGGGVVQPGRSLRLSCTVSGFSLTSYGVHWVRQAPGKGLEWVGLIWSGGSTDYSPAFISRFTISEDNSKSTVYLQMNSLRAEDTAVYFCARNSYSSGYYAMDYWGQGTTVTVSS
VL: B5 VL with A31H, S93R, L96P, L97Y
B7: aNRP2-14v10 (antibody, V domains shown)
VH: B6 VH
VL: B5 VL with A31T, Y91R, S93R, L96P, L97Y
B8: aNRP2-2v4 (antibody, V domains shown)
VH: QVQLVQSGAEVKKPGASVKVSCKASGYTFTSYWMHWVRQAPGQGLEWMGVIHPNSASTFYNERFKTRATMTVDRSSSTAYMELSSLRSEDTAVYYCSRPGTVRRSDYWGQGTTVTVSS
VL: DVVMTQSPLSLPVTLGQPASISCRSSQNIVHSTGNTYLEWYQQRPGQSPRLLIYKVSNRFSGVPDRFSGSGSGTDFTLKISRVEAEDVGVYYCFQGSHVPWTFGGGTKVEIK
B9: aNRP2-11v7 (antibody, V domains shown)
VH: QVQLVQSGAEVKKPGASVKVSCKASGYTFTSFGISWVRQAPGQGLEWIGEIYPRSGNTYYNENFKGRATMTADKSTSTAYMELRSLRSDDTAVYYCARSSGYYGSTPFPYWGQGTLVTVSS
VL: DIQMTQSPSSLSASVGDRVTITCRASQDISNYLNWYQQKPGKAVKLLIYYTSRLHSGVPSRFSGSGSGTDYTFTISSLQPEDIATYYCQQGNTLPWTFGGGTKVEIK

One experiment deals with Human NRP2 (aa23-855) with C-terminal Avi-, Myc- and His-tags (Human) (UniProt O60462). Briefly: SPR as described for Table E1 (human NRP2 antigen); the antigen for this mouse-IgG1 surrogate is not said separately.
With B1, the Kd (in general, the concentration at which binding is half-saturated) was determined as 0.0599 nM.

The target is the same in the next experiment. Briefly: SPR (ProteOn XPR36), antibody captured on anti-human Fab-kappa, NRP2 as analyte, 1:1 Langmuir fit.
B2 registered a Kd of 0.2 nM.
The same measure, in the same setting: to B3 belongs 0.358 nM; to B4, 0.029 nM; to B5, 17 nM.
Molecule B6 returned a Kd of 0.15 nM.
In the case of B7, the Kd came to 0.17 nM. This Kd and that of the molecule before are within 1.5-fold of each other.
In the case of B8, the equilibrium dissociation constant (Kd) turned out to be 2.7 nM.
Same read-out and setting: the figure for B9 is 0.95 nM.
